Article PMC3949604

Target: AhR (baculovirus);Arnt (baculovirus) (human;human, UniProt P35869;P27540 1-848;1-789, |)
Test: EMSA

Sequence of AhR (baculovirus);Arnt (baculovirus) (P35869 whole entry, chain 1 of 2): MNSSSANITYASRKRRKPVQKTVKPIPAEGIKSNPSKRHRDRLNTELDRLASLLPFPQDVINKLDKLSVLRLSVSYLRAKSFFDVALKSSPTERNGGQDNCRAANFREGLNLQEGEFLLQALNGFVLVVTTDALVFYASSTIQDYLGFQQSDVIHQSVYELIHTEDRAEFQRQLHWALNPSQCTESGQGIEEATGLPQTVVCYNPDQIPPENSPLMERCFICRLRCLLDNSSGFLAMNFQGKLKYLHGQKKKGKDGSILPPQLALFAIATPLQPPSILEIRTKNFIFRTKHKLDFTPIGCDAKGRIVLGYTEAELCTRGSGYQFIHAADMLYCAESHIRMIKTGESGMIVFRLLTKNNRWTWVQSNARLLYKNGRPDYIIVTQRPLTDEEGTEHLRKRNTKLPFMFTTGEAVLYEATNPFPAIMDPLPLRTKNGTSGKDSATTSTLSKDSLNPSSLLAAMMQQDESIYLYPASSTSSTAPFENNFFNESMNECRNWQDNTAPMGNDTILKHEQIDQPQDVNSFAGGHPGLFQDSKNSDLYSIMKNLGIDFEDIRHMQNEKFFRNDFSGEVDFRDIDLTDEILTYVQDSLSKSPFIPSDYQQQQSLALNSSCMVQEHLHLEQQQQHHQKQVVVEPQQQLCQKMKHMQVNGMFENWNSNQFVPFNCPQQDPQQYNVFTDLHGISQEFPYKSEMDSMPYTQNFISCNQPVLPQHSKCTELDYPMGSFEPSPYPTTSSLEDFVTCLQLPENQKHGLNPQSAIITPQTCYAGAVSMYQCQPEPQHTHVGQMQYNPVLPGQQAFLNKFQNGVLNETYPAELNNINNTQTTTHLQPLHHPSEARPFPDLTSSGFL
Sequence of AhR (baculovirus);Arnt (baculovirus) (P27540 whole entry, chain 2 of 2): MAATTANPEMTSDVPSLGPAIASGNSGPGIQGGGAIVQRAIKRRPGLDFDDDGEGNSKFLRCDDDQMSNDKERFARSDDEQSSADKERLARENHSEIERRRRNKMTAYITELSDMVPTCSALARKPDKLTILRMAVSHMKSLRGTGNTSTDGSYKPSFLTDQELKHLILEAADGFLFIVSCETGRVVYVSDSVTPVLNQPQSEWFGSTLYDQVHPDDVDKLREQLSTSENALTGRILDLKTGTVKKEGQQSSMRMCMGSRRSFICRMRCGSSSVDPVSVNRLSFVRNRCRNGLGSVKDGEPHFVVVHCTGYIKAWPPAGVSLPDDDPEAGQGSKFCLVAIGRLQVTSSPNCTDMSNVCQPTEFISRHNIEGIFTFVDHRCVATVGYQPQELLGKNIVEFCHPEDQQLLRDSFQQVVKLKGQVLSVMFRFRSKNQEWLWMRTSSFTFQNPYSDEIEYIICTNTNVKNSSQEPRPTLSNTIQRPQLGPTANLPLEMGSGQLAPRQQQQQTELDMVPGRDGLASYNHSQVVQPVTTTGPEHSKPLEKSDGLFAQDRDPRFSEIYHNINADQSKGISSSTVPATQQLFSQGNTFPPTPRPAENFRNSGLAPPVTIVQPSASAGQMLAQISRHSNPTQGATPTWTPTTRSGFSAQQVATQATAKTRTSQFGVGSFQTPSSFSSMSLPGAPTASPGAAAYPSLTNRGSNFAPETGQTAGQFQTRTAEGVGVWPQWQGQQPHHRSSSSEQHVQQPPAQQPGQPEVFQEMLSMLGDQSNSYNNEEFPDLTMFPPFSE

B1: DRE gel shift probe (OL439/OL440) (dsDNA)
DNA 1: TCGAGTAGATCACGCAATGGGCCCAGC
DNA 2: TCGAGCTGGGCCCATTGCGTGATCTAC
- binding result: binds
